Results taken from IntAct's records for PubMed 15210731.

B1: Myosin light chain 1 (Saccharomyces cerevisiae), P53141 (parent)
chain: MSATRANKDIFTLFDKKGQGAIAKDSLGDYLRAIGYNPTNQLVQDIINADSSLRDASSLTLDQITGLIEVNEKELDATTKAKTEDFVKAFQVFDKESTGKVSVGDLRYMLTGLGEKLTDAEVDELLKGVEVDSNGEIDYKKFIEDVLRQ
partner: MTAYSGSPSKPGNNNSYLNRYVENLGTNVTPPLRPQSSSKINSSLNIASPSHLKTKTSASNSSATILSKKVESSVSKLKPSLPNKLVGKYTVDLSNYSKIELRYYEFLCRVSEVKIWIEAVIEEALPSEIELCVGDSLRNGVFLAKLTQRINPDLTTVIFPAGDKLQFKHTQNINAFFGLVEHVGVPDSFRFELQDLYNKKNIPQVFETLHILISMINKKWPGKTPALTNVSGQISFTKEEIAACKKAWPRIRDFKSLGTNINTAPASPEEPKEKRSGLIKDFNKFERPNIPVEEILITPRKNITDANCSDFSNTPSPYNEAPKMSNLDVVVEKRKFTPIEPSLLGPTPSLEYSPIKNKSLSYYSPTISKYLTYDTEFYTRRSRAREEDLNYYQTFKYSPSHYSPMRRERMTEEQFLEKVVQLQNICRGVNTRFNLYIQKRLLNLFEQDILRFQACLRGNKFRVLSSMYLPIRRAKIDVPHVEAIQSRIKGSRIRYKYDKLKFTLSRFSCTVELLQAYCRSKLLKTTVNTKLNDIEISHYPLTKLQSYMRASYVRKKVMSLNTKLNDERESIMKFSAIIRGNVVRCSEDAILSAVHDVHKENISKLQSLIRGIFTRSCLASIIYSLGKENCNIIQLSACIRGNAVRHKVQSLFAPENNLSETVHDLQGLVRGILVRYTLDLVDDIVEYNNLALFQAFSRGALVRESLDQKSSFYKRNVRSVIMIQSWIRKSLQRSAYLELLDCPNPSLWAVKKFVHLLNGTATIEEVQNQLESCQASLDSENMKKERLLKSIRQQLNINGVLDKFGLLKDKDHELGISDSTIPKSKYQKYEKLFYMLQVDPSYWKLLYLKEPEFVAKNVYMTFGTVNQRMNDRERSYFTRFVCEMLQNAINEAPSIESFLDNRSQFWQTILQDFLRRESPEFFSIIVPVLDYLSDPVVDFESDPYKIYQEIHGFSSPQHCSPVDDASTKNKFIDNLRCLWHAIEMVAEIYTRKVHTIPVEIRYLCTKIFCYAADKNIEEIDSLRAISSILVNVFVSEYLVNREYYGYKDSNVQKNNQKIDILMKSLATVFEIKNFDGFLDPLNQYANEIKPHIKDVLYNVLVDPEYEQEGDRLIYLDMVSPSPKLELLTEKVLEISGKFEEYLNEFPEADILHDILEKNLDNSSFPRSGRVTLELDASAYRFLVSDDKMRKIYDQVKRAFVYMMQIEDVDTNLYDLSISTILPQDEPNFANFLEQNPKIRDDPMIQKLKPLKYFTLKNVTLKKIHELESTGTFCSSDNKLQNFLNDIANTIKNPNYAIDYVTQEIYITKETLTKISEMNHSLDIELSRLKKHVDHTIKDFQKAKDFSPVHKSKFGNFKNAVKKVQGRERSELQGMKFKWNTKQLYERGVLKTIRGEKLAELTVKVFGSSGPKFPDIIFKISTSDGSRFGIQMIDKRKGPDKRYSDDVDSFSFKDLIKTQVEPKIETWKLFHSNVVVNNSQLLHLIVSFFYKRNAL
B2: Myosin-1 (Saccharomyces cerevisiae), P08964 (parent)
chain: MTGGQSCSSNMIVWIPDEKEVFVKGELMSTDINKNKFTGQEEQIGIVHPLDSTEVSNLVQVRISDVFPVNPSTFDKVENMSELTHLNEPSVLYNLEKRYDCDLIYTYSGLFLVAINPYHNLNLYSEDHINLYHNKHNRLSKSRLDENSHEKLPPHIFAIAEEAYENLLSEGKDQSILVTGESGAGKTENTKKILQYLASITSGSPSNIAPVSGSSIVESFEMKILQSNPILESFGNAQTVRNNNSSRFGKFIKIEFNEHGMINGAHIEWYLLEKSRIVHQNSKERNYHIFYQLLSGLDDSELKNLRLKSRNVKDYKILSNSNQDIIPGINDVENFKELLSALNIIGFSKDQIRWIFQVVAIILLIGNIEFVSDRAEQASFKNDVSAICSNLGVDEKDFQTAILRPRSKAGKEWVSQSKNSQQAKFILNALSRNLYERLFGYIVDMINKNLDHGSATLNYIGLLDIAGFEIFENNSFEQLCINYTNEKLQQFFNNHMFVLEQSEYLKENIQWDYIDYGKDLQLTIDLIESKGPPTGVLPLLDEEAVLPKSTDESFYSKLISTWDQNSSKFKRSRLKNGFILKHYAGDVEYTVEGWLSKNKDPLNDNLLSLLSSSQNDIISKLFQPEGEKSSSAGVEANISNQEVKKSARTSTFKTTSSRHREQQITLLNQLASTHPHFVRCIIPNNVKKVKTFNRRLILDQLRCNGVLEGIRLAREGYPNRIAFQEFFQRYRILYPENSTTTTFSSKLKASTKQNCEFLLTSLQLDTKVYKIGNTKLFFKAGVLADLEKQKDVKLNNIMIKLTATIRGYTVRKEITYHLQKLKKTRVIGNTFRLYNRLVKEDPWFNLFIRIKPLLTSSNDMTRTKKFNEQINKLKNDLQEMESKKKFLEEKNQKTVNELENTQDLLNQEKENLRKNESLLNRVKTSSETLQKQFDDLVSEKDEISREKLEVAQNLEEAHQKIQGLQETIREREATLEKLHSKNNELIKQISDLNCDISKEQSSQSLIKESKLKLENEIKRLKDVINSKEEEIKSFNDKLSSSEEDLDIKLVTLEKNCNIAMSRLQSLVTENSDLRSKNENFKKEKAALNNQLKNKESELLKMKEKIDNHKKELATFSKQRDDAVSEHGKITAELKETRIQLTEYKSNYQKIKEEYSNFQRETKEQEQKKRNSLVESLNDSKIKELEARLSQEISLNQYLNKRISGNSVETNISSTRRSTSYSDDPLDKEDIIKKYYDLQLAFTEITRNLENEIEEKKNLISRLRFTETRLASSSFEDQKIKAQMKKLKKLIQDMDPSIPLDSILNEPLDNCPDKESDINKLMLEVDYLKRQLDIETRAHYDAENAISALHSKFRKIQGESSLSSSDIYKLKFEASEERVKSLEDKLKTMPLRDRTNLPVGDIIKNRDSISKYEEEIRYYKLENYKLQEILNESNGKLSQLTLDLRQSKSKEALLSEQLDRLQKDLESTERQKELLSSTIKQQKQQFENCMDDLQGNELRLREHIHALKQAEEDVKNMASIIEKLKTQNKQKEKLIWEREMERNDSDMQLQETLLELKRVQDVKKILSDDLAHLKERLSAVEDRSQYTDEINRLKEELNCSLKAETNLKKEFATLKYKLETSTNDSEAKISDLLKQLDHYTKVVEMLNNEKDAISLAEKELYQKYEALNTECESLKGKIVSLTKIKQELESDLNQKTDALQISNAALSSSTQKNKEITEKIKYLEETLQLQMEQNSRNGELVKTLQASCNGYKDKFDDEKQKNIDLYEENQTLQKLNTDLQLQLKNLHERLSDTTEKNAWLSKIHELENMVSLETDLKYEEMKKNKSLERAVEELQTKNSQQTDVIELANKNRSEFEEATLKYEAQISDLEKYISQQELEMKKSIRDNSSYRDKVQEMAQEIEFWKSRYESTMIGSKNIDSNNAQSKIFS
partner: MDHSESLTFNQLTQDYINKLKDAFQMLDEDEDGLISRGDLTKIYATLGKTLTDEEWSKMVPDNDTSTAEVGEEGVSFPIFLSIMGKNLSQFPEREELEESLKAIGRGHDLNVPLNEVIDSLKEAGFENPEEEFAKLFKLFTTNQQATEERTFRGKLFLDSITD
B3: Myosin light chain 1 (Saccharomyces cerevisiae), P53141 (parent)
chain: B1 chain

Variants of: B1
Conditions: with iqg1_yeast IQG1, Q12280

Row | Variant | effect of a mutation on the interaction
1 | MSATRANKDIFTLFDKKGQGAIAKDSLGDYLRAIGYNPTNQLVQDIINADSSLRDASSLTLDQITGLIEVNEKELDATTKAKTEDFVKAFQVFDKESTGKVSVGDLRYMLTGLGEKLTDAEVDELLKGVEVDSNEEIDYKKFIEDVLRQ [G135E] | with no effect
2 | MSATRANKDIFTLFDKKGQGAIAKDSLGDYLRAIGYNPTNQLVQDIINADSSLRDASSLTLDQITGLIEVNEKELDATTKAKTEDFVKAFQVFDKESTGKVSVGDLRYMLTGLDEKLTDAEVDELLKGVEVDSNGEIDYKKFIEDVLRQ [G114D] | disrupting interaction strength

Variants of: B2
Conditions: with mlc2_yeast MLC2, Q06580

Row | Variant | effect of a mutation on the interaction
3 | R806A | with no effect

Variants of: B3
Conditions: with myo2_yeast MYO2, P19524
Sequence of myo2_yeast MYO2, P19524 (P19524 whole entry): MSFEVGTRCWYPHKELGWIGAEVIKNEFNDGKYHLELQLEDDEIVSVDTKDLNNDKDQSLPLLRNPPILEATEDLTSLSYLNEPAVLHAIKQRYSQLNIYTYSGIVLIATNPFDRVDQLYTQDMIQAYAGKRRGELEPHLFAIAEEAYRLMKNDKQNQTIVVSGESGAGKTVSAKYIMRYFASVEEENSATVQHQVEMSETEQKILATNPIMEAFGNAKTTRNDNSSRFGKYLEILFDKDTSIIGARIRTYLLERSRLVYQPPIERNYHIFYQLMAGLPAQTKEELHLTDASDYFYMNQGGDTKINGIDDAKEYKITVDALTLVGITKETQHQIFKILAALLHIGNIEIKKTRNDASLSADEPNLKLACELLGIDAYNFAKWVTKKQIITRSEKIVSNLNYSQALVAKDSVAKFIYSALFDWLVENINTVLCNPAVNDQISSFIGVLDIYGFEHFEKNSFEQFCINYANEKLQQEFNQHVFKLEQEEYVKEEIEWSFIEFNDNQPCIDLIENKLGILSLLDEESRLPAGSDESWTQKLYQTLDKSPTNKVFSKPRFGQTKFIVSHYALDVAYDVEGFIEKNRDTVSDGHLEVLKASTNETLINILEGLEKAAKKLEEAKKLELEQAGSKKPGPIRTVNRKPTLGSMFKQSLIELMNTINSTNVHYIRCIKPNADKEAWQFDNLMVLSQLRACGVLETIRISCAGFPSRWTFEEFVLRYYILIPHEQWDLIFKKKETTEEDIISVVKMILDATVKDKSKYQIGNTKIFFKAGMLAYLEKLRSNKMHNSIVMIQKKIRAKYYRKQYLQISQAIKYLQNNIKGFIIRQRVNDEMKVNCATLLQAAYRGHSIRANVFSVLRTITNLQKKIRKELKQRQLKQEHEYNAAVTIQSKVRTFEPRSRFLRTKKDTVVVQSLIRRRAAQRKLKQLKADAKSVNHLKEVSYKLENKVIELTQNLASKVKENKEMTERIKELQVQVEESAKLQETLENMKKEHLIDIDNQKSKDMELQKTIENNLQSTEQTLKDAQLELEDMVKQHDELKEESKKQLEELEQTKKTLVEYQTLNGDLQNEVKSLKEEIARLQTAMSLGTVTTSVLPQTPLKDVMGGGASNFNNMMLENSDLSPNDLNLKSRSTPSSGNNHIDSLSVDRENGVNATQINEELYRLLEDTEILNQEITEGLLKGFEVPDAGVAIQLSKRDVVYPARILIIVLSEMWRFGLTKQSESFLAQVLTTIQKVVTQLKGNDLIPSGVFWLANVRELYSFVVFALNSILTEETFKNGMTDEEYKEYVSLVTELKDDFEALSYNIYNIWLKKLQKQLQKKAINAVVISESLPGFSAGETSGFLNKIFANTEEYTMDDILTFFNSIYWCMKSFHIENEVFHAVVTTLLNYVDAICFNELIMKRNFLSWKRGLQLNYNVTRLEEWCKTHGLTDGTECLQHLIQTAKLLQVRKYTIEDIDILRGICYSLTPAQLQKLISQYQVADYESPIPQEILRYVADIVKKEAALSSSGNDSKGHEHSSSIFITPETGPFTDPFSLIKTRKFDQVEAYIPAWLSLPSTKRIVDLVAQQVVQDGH

Row | Variant | effect of a mutation on the interaction
4 | MSATRANKDIFTLFDKKGQGAIAKDSLGDYLRAIGYNPTNQLVQDIINADSSLRDASSLTLDQITGLIEVNEKELDATTKAKTEDFVKAFQVFDKESTGKVSVGDLRYMLTGLGEKLTDAEVDELLKGVEVDSNEEIDYKKFIEDVLRQ [G135E] | with no effect
5 | MSATRANKDIFTLFDKKGQGAIAKDSLGDYLRAIGYNPTNQLVQDIINADSSLRDASSLTLDQITGLIEVNEKELDATTKAKTEDFVKAFQVFDKESTGKVSVGDLRYMLTGLDEKLTDAEVDELLKGVEVDSNGEIDYKKFIEDVLRQ [G114D] | disrupting interaction strength

Variants of: B3
Conditions: with myo1_yeast MYO1, P08964

Row | Variant | effect of a mutation on the interaction
6 | MSATRANKDIFTLFDKKGQGAIAKDSLGDYLRAIGYNPTNQLVQDIINADSSLRDASSLTLDQITGLIEVNEKELDATTKAKTEDFVKAFQVFDKESTGKVSVGDLRYMLTGLGEKLTDAEVDELLKGVEVDSNEEIDYKKFIEDVLRQ [G135E] | decreasing interaction strength
7 | MSATRANKDIFTLFDKKGQGAIAKDSLGDYLRAIGYNPTNQLVQDIINADSSLRDASSLTLDQITGLIEVNEKELDATTKAKTEDFVKAFQVFDKESTGKVSVGDLRYMLTGLDEKLTDAEVDELLKGVEVDSNGEIDYKKFIEDVLRQ [G114D] | decreasing interaction strength
